Values of other authors as cited in US20240139347A1, “COMPLEX, VASCULAR CONTRAST AGENT, X-RAY CONTRAST AGENT, METHOD FOR PRODUCING COMPLEX, AND IMAGING METHOD FOR CAPTURING STRUCTURAL CHANGE IN VESSEL” (TOHOKU UNIVERSITY, priority 2021, published 2024).

Details: Y. Nojima et al., Pharm. Res. 26 (2009)

B1: lactoferrin: lactoferrin (MW: 80 kDa), protein used in the complex of Example 1 (protein, UniProt P02788 20-710, looked up)
Lactotransferrin: GRRRSVQWCAVSQPEATKCFQWQRNMRKVRGPPVSCIKRDSPIQCIQAIAENRADAVTLDGGFIYEAGLAPYKLRPVAAEVYGTERQPRTHYYAVAVVKKGGSFQLNELQGLKSCHTGLRRTAGWNVPIGTLRPFLNWTGPPEPIEAAVARFFSASCVPGADKGQFPNLCRLCAGTGENKCAFSSQEPYFSYSGAFKCLRDGAGDVAFIRESTVFEDLSDEAERDEYELLCPDNTRKPVDKFKDCHLARVPSHAVVARSVNGKEDAIWNLLRQAQEKFGKDKSPKFQLFGSPSGQKDLLFKDSAIGFSRVPPRIDSGLYLGSGYFTAIQNLRKSEEEVAARRARVVWCAVGEQELRKCNQWSGLSEGSVTCSSASTTEDCIALVLKGEADAMSLDGGYVYTAGKCGLVPVLAENYKSQQSSDPDPNCVDRPVEGYLAVAVVRRSDTSLTWNSVKGKKSCHTAVDRTAGWNIPMGLLFNQTGSCKFDEYFSQSCAPGSDPRSNLCALCIGDEQGENKCVPNSNERYYGYTGAFRCLAENAGDVAFVKDVTVLQNTDGNNNEAWAKDLKLADFALLCLDGKRKPVTEARSCHLAMAPNHAVVSRMDKVERLKQVLLHQQAKFGRNGSDCPDKFCLFQSETKNLLFNDNTECLARLHGKTTYEKYLGPQYVAGITNLKKCSTSPLLEACEFLRK
half-life in blood of lactoferrin alone: about 7.8 min
